Test results published in patent publication US20100278818A1.

How the values were obtained:
[1] = molecular target: Tn antigen (GalNAc alpha-O-Ser/Thr of a polypeptide chain) at the surface of human tumor cells; experiment: flow cytometry, biotinylated IVIG control and SA-PE on EpCam+CD45- ovarian cancer cells from patient ascitis
[2] = molecular target: Tn antigen (GalNAc alpha-O-Ser/Thr of a polypeptide chain) at the surface of human tumor cells; experiment: flow cytometry, biotinylated chi-83D4 and SA-PE on EpCam+CD45- ovarian cancer cells from patient ascitis (one representative patient)
[3] = molecular target: Tn antigen (GalNAc alpha-O-Ser/Thr of a polypeptide chain) at the plasma membrane of murine tumor cell lines; experiment: flow cytometry MFI against antibody concentration on TA3HA cells
[4] = molecular target: Tn antigen (GalNAc alpha-O-Ser/Thr of a polypeptide chain) at the surface of human tumor cells; experiment: flow cytometry, biotinylated chi-83D4 preincubated with GalNac (1 M), SA-PE, EpCam+CD45- ovarian cancer cells from patient ascitis
[5] = molecular target: Tn antigen (GalNAc alpha-O-Ser/Thr of a polypeptide chain) at the surface of human tumor cells; experiment: flow cytometry MFI against antibody concentration on Jurkat cells; parameters: unit not given here
[6] = molecular target: Tn antigen (GalNAc alpha-O-Ser/Thr of a polypeptide chain) at the surface of human tumor cells; experiment: immunohistochemistry, biotinylated chi-83D4 and avidin-HRP on 3 primary ovarian serous adenocarcinomas
[7] = molecular target: Tn antigen (GalNAc alpha-O-Ser/Thr of a polypeptide chain) at the surface of human tumor cells; experiment: flow cytometry MFI against antibody concentration on Shin3 cells; parameters: unit not given here

MFI [1]	MFI [2]	saturating concentration [3] [mg/mL]	MFI [4]	saturating concentration [5]	percent of tumor cells labeled [6] [%]	saturating concentration [7]	Molecule
1810							Intravenous immunoglobulin (Tegeline, IVIG) (antibody)
	4490	50	1830	70	70 to 80	20	chimeric anti-Tn (chi-83D4) mAb (antibody, human IgG1, kappa, V domains shown) VH: QVQLQQSDAELVKPGASVKISCKASGYTFTDHAIHWVKQKPEQGLEWIGYFSPGNGDIKYNEKFKGKATLTADKSSSTAYMQLNSLTSEDSAVYFCKRSYGNYDYWGQGTTLTVSS VL: DILLTQSPAILSVSPGERVSFSCRASQNIGTSIHWYQQRTNGSPRLLIKYASESVSGIPSRFSGSGSGTDFTLSINSVESEDIADYYCQHTNSWPTTFGGGTKLEIKR
